Experimental data: patent publication US20240209334A1, “SMALL-MOLECULE-ACTIVATED GLYCAN MODIFYING ENZYMES AND USES THEREOF” (President and Fellows of Harvard College, priority 2022, published 2024)

B1: C181-NES: OGA-intein(C181) appended to a nuclear-export sequence (protein)
chain: MEQKLISEEDLAIAMVQKESQATLEERESELSSNPAASAGASLEPPAAPAPGEDNPAGAGGAAVAGAAGGARRFLCGVVEGFYGRPWVMEQRKELFRRLQKWELNTYLYAPKDDYKHRMFWREMYSVEEAEQLMTLISAAREYEIEFIYAISPGLDITFSNPKEVSTLKRKLDQVSQFGCRSFALLFDDIDHNMCLAEGTRIFDPVTGTTHRIEDVVDGRKPIHVVAAAKDGTLLARPVVSWFDQGTRDVIGLRIAGGAIVWATPDHKVLTEYGWRAAGELRKGDRVAGPGGSGNSLALSLTADQMVSALLDAEPPILYSEYDPTSPFSEASMMGLLTNLADRELVHMINWAKRVPGFVDLTLHDQAHLLERAWLEILMIGLVWRSMEHPGKLLFAPNLLLDRNQGKCVEGMVEIFDMLLATSSRFRMMNLQGEEFVCLKSIILLNSGVYTFLSSTLKSLEEKDHIHRALDKITDTLIHLMAKAGLTLQQQHQRLAQLLLILSHIRHMSNKGMEHLYSMKYKNVVPLYDLLLEMLDAHRLHAGGSGASRVQAFADALDDKFLHDMLAEGLRYSVIREVLPTRRARTFDLEVEELHTLVAEGVVVHNCAADKEVFSSFAHAQVSITNEIYQYLGEPETFLFCPTEYCGTFCYPNVSQSPYLRTVGEKLLPGIEVLWTGPKVVSKEIPVESIEEVSKIIKRAPVIWDNIHANDYDQKRLFLGPYKGRSTELIPRLKGVLTNPNCEFEANYVAIHTLATWYKSNMNGVRKDVVMTDSEDSTVSIQIKLENEGSDEDIETDVLYSPQMALKLALTEWLQEFGVPHQYSSRGSGSGSGSGSGSGSGEKPLYTAEPVTLEDLQLLADLFYLPYEHGPKGAQMLREFQWLRANSSVVSVNCKGKDSEKIEEWRSRAAKFEEMCGLVMGMFTRLSNCANRTILYDMYSYVWDIKSIMSMVKSFVQWLGCRSHSSAQFLIGDQEPWAFRGGLAGEFQRLLPIDGANDLFFQPPLALKLAGLDIN
B2: C181-NLS: OGA-intein(C181) appended to a nuclear-localization sequence (protein)
chain: MEQKLISEEDLAIAMVQKESQATLEERESELSSNPAASAGASLEPPAAPAPGEDNPAGAGGAAVAGAAGGARRFLCGVVEGFYGRPWVMEQRKELFRRLQKWELNTYLYAPKDDYKHRMFWREMYSVEEAEQLMTLISAAREYEIEFIYAISPGLDITFSNPKEVSTLKRKLDQVSQFGCRSFALLFDDIDHNMCLAEGTRIFDPVTGTTHRIEDVVDGRKPIHVVAAAKDGTLLARPVVSWFDQGTRDVIGLRIAGGAIVWATPDHKVLTEYGWRAAGELRKGDRVAGPGGSGNSLALSLTADQMVSALLDAEPPILYSEYDPTSPFSEASMMGLLTNLADRELVHMINWAKRVPGFVDLTLHDQAHLLERAWLEILMIGLVWRSMEHPGKLLFAPNLLLDRNQGKCVEGMVEIFDMLLATSSRFRMMNLQGEEFVCLKSIILLNSGVYTFLSSTLKSLEEKDHIHRALDKITDTLIHLMAKAGLTLQQQHQRLAQLLLILSHIRHMSNKGMEHLYSMKYKNVVPLYDLLLEMLDAHRLHAGGSGASRVQAFADALDDKFLHDMLAEGLRYSVIREVLPTRRARTFDLEVEELHTLVAEGVVVHNCAADKEVFSSFAHAQVSITNEIYQYLGEPETFLFCPTEYCGTFCYPNVSQSPYLRTVGEKLLPGIEVLWTGPKVVSKEIPVESIEEVSKIIKRAPVIWDNIHANDYDQKRLFLGPYKGRSTELIPRLKGVLTNPNCEFEANYVAIHTLATWYKSNMNGVRKDVVMTDSEDSTVSIQIKLENEGSDEDIETDVLYSPQMALKLALTEWLQEFGVPHQYSSRGSGSGSGSGSGSGSGEKPLYTAEPVTLEDLQLLADLFYLPYEHGPKGAQMLREFQWLRANSSVVSVNCKGKDSEKIEEWRSRAAKFEEMCGLVMGMFTRLSNCANRTILYDMYSYVWDIKSIMSMVKSFVQWLGCRSHSSAQFLIGDQEPWAFRGGLAGEFQRLLPIDGANDLFFQPPKRPAATKKAGQAKKKK

Legend:
[1] = tested on: Nup62; assay: Spatial deglycosylation of cytoplasmic Nup62 by OGA-intein(C181) variants in HEK293T cells; assay type: cell-based; details: cytoplasmic Nup62 co-expressed
Method: (§1) Next, it was assessed whether these OGA-intein(C181) variants enable selective spatial deglycosylation in live cells. As O-GlcNAc affects the subcellular localization of many proteins (37), Nup62 was used as a model cytoplasmic substrate, which was previously primarily localized in the cytoplasm when transiently overexpressed in HEK293T cells independent of the O-GlcNAcylation state (13) (FIGS. 11A, 11B). Nup62 was co-expressed with three OGA-intein(C181) variants (C181-WT, C181-NLS, and C181-NES) in HEK293T cells, and Nup62 was enriched for O-GlcNAc measurement. […] Next, Nup62 was localized to the nucleus by attachment to an NLS tag (Nup62-NLS), and a similar coexpression and 4-HT-triggered activation was performed with OGA-intein(C181) variants. […] The fluorescent intensity of OGA-intein variants also show a strong correlation to the localization of Nup62, indicating the desired subcellular distribution (FIGS. 11A-C).
(§2) Immunoprecipitation and Immunoblot assays. […]
(§3) For immunoblotting analysis, proteins were transferred to a nitrocellulose membrane using an iBlot system (Invitrogen). […] Immunoblot images were captured using Azure Imager C600 and analyzed with Fiji ImageJ for converting all IR fluorescence western blot images to grayscale images.

[2] = tested on: Nup62-NLS; assay: Spatial deglycosylation of nuclear Nup62-NLS by OGA-intein(C181) variants in HEK293T cells; assay type: cell-based; details: nuclear Nup62-NLS co-expressed
Method: as §1, §2, §3

Molecule | removal of O-GlcNAc from Nup62 after 4-HT-triggered activation [1] | 4-HT-induced deglycosylation of Nup62-NLS [2]
B1 | removed O-GlcNAc from Nup62 | 
B2 |  | 4-HT-induced deglycosylation
